{
  "source": "patent US20220025010A1",
  "about": "(ANTAG THERAPEUTICS, published 2022)",
  "data": [
    {"molecular_target": "T1, human GIP receptor (human, UniProt P48546 22-466)", "T1 sequence (looked up)": "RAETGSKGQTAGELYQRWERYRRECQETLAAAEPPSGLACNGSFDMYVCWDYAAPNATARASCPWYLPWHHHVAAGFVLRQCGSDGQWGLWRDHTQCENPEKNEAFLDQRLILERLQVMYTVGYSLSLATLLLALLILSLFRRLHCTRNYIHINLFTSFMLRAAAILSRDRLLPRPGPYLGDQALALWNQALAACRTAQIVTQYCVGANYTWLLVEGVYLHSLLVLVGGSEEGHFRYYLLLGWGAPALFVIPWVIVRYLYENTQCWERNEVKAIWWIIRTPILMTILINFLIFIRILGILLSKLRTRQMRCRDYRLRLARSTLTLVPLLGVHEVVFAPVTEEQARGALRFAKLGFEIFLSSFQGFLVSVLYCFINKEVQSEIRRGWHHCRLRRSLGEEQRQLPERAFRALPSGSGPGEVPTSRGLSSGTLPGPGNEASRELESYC", "assay": "cell-based or functional assay", "units": {"CisBio cAMP agonism % Efficacy": "%", "CisBio cAMP antagonism % inhib": "%", "CisBio cAMP antagonism IC50": "nM", "DiscoveRx cAMP antagonism % inhib": "%", "DiscoveRx cAMP antagonism IC50": "nM", "DiscoveRx cAMP antagonism log IC50": "log M"}, "values": [
      {"binder": "SGTFISDYSIAMDRIKQQDFVNWLLAQR (HELM PEPTIDE1{S.G.T.F.I.S.D.Y.S.I.A.M.D.R.I.K.Q.Q.D.F.V.N.W.L.L.A.Q.R.[am]}|PEPTIDE2{[O=C(O)CCCCCCCCCCCCCCC(=O)[*:2]].[gGlu].[O=C(COCCOCCN[*:1])[*:2]]}$PEPTIDE1,PEPTIDE2,16:R3-3:R2$$$V2.0; N-terminus assumed; SMILES CC[C@H](C)[C@H](NC(=O)[C@H](CO)NC(=O)[C@H](Cc1ccc(O)cc1)NC(=O)[C@H](CC(=O)O)NC(=O)[C@H](CO)NC(=O)[C@@H](NC(=O)[C@H](Cc1ccccc1)NC(=O)[C@@H](NC(=O)CNC(=O)[C@@H](N)CO)[C@@H](C)O)[C@@H](C)CC)C(=O)N[C@@H](C)C(=O)N[C@@H](CCSC)C(=O)N[C@@H](CC(=O)O)C(=O)N[C@@H](CCCNC(=N)N)C(=O)N[C@H](C(=O)N[C@@H](CCCCNC(=O)COCCOCCNC(=O)CC[C@H](NC(=O)CCCCCCCCCCCCCCC(=O)O)C(=O)O)C(=O)N[C@@H](CCC(N)=O)C(=O)N[C@@H](CCC(N)=O)C(=O)N[C@@H](CC(=O)O)C(=O)N[C@@H](Cc1ccccc1)C(=O)N[C@H](C(=O)N[C@@H](CC(N)=O)C(=O)N[C@@H](Cc1c[nH]c2ccccc12)C(=O)N[C@@H](CC(C)C)C(=O)N[C@@H](CC(C)C)C(=O)N[C@@H](C)C(=O)N[C@@H](CCC(N)=O)C(=O)N[C@@H](CCCNC(=N)N)C(N)=O)C(C)C)[C@@H](C)CC)", "note": "[AT510]", "CisBio cAMP agonism % Efficacy": 2, "CisBio cAMP antagonism % inhib": 87, "CisBio cAMP antagonism IC50": 58.4, "CisBio cAMP antagonism pIC50": 7.2, "DiscoveRx cAMP antagonism % inhib": 100, "DiscoveRx cAMP antagonism IC50": 30, "DiscoveRx cAMP antagonism log IC50": -7.5},
      {"binder": "GGTFISDYSIAMDRIKQQDFVNWLLAQR (HELM PEPTIDE1{G.G.T.F.I.S.D.Y.S.I.A.M.D.R.I.K.Q.Q.D.F.V.N.W.L.L.A.Q.R.[am]}|PEPTIDE2{[O=C(O)CCCCCCCCCCCCCCC(=O)[*:2]].[gGlu].[O=C(COCCOCCN[*:1])[*:2]]}$PEPTIDE1,PEPTIDE2,16:R3-3:R2$$$V2.0; N-terminus assumed; SMILES CC[C@H](C)[C@H](NC(=O)[C@H](CO)NC(=O)[C@H](Cc1ccc(O)cc1)NC(=O)[C@H](CC(=O)O)NC(=O)[C@H](CO)NC(=O)[C@@H](NC(=O)[C@H](Cc1ccccc1)NC(=O)[C@@H](NC(=O)CNC(=O)CN)[C@@H](C)O)[C@@H](C)CC)C(=O)N[C@@H](C)C(=O)N[C@@H](CCSC)C(=O)N[C@@H](CC(=O)O)C(=O)N[C@@H](CCCNC(=N)N)C(=O)N[C@H](C(=O)N[C@@H](CCCCNC(=O)COCCOCCNC(=O)CC[C@H](NC(=O)CCCCCCCCCCCCCCC(=O)O)C(=O)O)C(=O)N[C@@H](CCC(N)=O)C(=O)N[C@@H](CCC(N)=O)C(=O)N[C@@H](CC(=O)O)C(=O)N[C@@H](Cc1ccccc1)C(=O)N[C@H](C(=O)N[C@@H](CC(N)=O)C(=O)N[C@@H](Cc1c[nH]c2ccccc12)C(=O)N[C@@H](CC(C)C)C(=O)N[C@@H](CC(C)C)C(=O)N[C@@H](C)C(=O)N[C@@H](CCC(N)=O)C(=O)N[C@@H](CCCNC(=N)N)C(N)=O)C(C)C)[C@@H](C)CC)", "note": "[AT508]", "CisBio cAMP agonism % Efficacy": 0, "CisBio cAMP antagonism % inhib": 89, "CisBio cAMP antagonism IC50": 92.6, "CisBio cAMP antagonism pIC50": 7, "DiscoveRx cAMP antagonism % inhib": 100, "DiscoveRx cAMP antagonism IC50": 23, "DiscoveRx cAMP antagonism log IC50": -7.6},
      {"binder": "PGTFISDYSIAMDRIKQQDFVNWLLAQR (HELM PEPTIDE1{P.G.T.F.I.S.D.Y.S.I.A.M.D.R.I.K.Q.Q.D.F.V.N.W.L.L.A.Q.R.[am]}|PEPTIDE2{[O=C(O)CCCCCCCCCCCCCCC(=O)[*:2]].[gGlu]}$PEPTIDE1,PEPTIDE2,16:R3-2:R2$$$V2.0; N-terminus assumed; SMILES CC[C@H](C)[C@H](NC(=O)[C@H](CO)NC(=O)[C@H](Cc1ccc(O)cc1)NC(=O)[C@H](CC(=O)O)NC(=O)[C@H](CO)NC(=O)[C@@H](NC(=O)[C@H](Cc1ccccc1)NC(=O)[C@@H](NC(=O)CNC(=O)[C@@H]1CCCN1)[C@@H](C)O)[C@@H](C)CC)C(=O)N[C@@H](C)C(=O)N[C@@H](CCSC)C(=O)N[C@@H](CC(=O)O)C(=O)N[C@@H](CCCNC(=N)N)C(=O)N[C@H](C(=O)N[C@@H](CCCCNC(=O)CC[C@H](NC(=O)CCCCCCCCCCCCCCC(=O)O)C(=O)O)C(=O)N[C@@H](CCC(N)=O)C(=O)N[C@@H](CCC(N)=O)C(=O)N[C@@H](CC(=O)O)C(=O)N[C@@H](Cc1ccccc1)C(=O)N[C@H](C(=O)N[C@@H](CC(N)=O)C(=O)N[C@@H](Cc1c[nH]c2ccccc12)C(=O)N[C@@H](CC(C)C)C(=O)N[C@@H](CC(C)C)C(=O)N[C@@H](C)C(=O)N[C@@H](CCC(N)=O)C(=O)N[C@@H](CCCNC(=N)N)C(N)=O)C(C)C)[C@@H](C)CC)", "note": "[AT506]", "CisBio cAMP agonism % Efficacy": 5, "CisBio cAMP antagonism % inhib": 78, "CisBio cAMP antagonism IC50": 147, "CisBio cAMP antagonism pIC50": 6.8, "DiscoveRx cAMP antagonism % inhib": 90, "DiscoveRx cAMP antagonism IC50": 91, "DiscoveRx cAMP antagonism log IC50": -7},
      {"binder": "GGTFISDYSIAMDRIKQQDFVNWLLAQR (HELM PEPTIDE1{G.G.T.F.I.S.D.Y.S.I.A.M.D.R.I.K.Q.Q.D.F.V.N.W.L.L.A.Q.R}|PEPTIDE2{[O=C(O)CCCCCCCCCCCCCCC(=O)[*:2]].[gGlu]}$PEPTIDE1,PEPTIDE2,16:R3-2:R2$$$V2.0; N-terminus assumed; SMILES CC[C@H](C)[C@H](NC(=O)[C@H](CO)NC(=O)[C@H](Cc1ccc(O)cc1)NC(=O)[C@H](CC(=O)O)NC(=O)[C@H](CO)NC(=O)[C@@H](NC(=O)[C@H](Cc1ccccc1)NC(=O)[C@@H](NC(=O)CNC(=O)CN)[C@@H](C)O)[C@@H](C)CC)C(=O)N[C@@H](C)C(=O)N[C@@H](CCSC)C(=O)N[C@@H](CC(=O)O)C(=O)N[C@@H](CCCNC(=N)N)C(=O)N[C@H](C(=O)N[C@@H](CCCCNC(=O)CC[C@H](NC(=O)CCCCCCCCCCCCCCC(=O)O)C(=O)O)C(=O)N[C@@H](CCC(N)=O)C(=O)N[C@@H](CCC(N)=O)C(=O)N[C@@H](CC(=O)O)C(=O)N[C@@H](Cc1ccccc1)C(=O)N[C@H](C(=O)N[C@@H](CC(N)=O)C(=O)N[C@@H](Cc1c[nH]c2ccccc12)C(=O)N[C@@H](CC(C)C)C(=O)N[C@@H](CC(C)C)C(=O)N[C@@H](C)C(=O)N[C@@H](CCC(N)=O)C(=O)N[C@@H](CCCNC(=N)N)C(=O)O)C(C)C)[C@@H](C)CC)", "note": "[AT263]", "CisBio cAMP agonism % Efficacy": 0, "CisBio cAMP antagonism % inhib": 69, "CisBio cAMP antagonism IC50": 21, "CisBio cAMP antagonism pIC50": 6.7, "DiscoveRx cAMP agonism Emax": 8, "DiscoveRx cAMP antagonism IC50": 74, "DiscoveRx cAMP antagonism log IC50": -7.1}
    ]}
  ]
}
